Experimental findings from patent publication US20250313611A1 (VIB VZW, published 2025) are described below.

Assay [1] concerns the target T1, SARS-COV-2 RBD (His-tagged, Sinobiologicals) (SARS-CoV-2 (Wuhan), UniProt P0DTC2 319-541). Briefly: ELISA, periplasmic extract 1/10, OD450 antigen/OD450 BSA. Background: An ELISA detects its analyte on a solid surface through an enzyme-linked reagent.
Assay [2] addresses T2, recombinant MERS-COV spike protein (MERS-CoV, UniProt K9N5Q8 18-1291).
T2 sequence: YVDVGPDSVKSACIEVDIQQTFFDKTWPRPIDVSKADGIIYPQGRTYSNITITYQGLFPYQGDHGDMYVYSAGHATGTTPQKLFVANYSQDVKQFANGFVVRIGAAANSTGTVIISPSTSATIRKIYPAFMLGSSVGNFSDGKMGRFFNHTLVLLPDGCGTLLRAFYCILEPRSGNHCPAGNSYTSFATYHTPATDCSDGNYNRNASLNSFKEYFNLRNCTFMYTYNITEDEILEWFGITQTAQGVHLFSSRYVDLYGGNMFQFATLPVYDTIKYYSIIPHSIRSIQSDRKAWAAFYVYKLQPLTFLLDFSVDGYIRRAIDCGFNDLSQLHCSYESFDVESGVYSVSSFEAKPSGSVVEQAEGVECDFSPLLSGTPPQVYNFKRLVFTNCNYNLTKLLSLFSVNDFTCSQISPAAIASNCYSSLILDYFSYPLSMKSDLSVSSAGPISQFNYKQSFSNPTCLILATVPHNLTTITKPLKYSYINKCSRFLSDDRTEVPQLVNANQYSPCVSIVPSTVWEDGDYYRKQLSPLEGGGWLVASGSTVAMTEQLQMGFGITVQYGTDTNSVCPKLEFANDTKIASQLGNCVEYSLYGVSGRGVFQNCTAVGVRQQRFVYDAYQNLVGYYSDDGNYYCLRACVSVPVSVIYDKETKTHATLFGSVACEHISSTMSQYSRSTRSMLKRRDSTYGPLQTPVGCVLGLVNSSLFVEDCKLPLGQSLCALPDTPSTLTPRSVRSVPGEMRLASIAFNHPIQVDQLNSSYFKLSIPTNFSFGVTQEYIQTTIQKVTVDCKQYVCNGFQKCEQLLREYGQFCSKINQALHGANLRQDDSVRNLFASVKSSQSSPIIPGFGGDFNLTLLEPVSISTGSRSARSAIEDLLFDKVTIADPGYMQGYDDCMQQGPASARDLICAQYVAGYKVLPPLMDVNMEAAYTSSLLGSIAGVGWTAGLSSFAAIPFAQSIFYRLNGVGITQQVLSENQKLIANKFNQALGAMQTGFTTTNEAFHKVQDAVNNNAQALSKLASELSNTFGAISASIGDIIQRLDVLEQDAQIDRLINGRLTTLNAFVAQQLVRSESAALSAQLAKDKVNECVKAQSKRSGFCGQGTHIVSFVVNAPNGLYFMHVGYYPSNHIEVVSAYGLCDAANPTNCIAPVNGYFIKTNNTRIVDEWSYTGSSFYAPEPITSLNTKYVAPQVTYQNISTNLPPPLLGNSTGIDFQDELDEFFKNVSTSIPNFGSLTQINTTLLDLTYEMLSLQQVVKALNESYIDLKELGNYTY
Briefly: ELISA, periplasmic extract 1/10, heat map of binding (%).

Assay [3] concerns the target T3, recombinant HKU1 spike protein (HCoV-HKU1, UniProt Q5MQD0 13-1276).
T3 sequence: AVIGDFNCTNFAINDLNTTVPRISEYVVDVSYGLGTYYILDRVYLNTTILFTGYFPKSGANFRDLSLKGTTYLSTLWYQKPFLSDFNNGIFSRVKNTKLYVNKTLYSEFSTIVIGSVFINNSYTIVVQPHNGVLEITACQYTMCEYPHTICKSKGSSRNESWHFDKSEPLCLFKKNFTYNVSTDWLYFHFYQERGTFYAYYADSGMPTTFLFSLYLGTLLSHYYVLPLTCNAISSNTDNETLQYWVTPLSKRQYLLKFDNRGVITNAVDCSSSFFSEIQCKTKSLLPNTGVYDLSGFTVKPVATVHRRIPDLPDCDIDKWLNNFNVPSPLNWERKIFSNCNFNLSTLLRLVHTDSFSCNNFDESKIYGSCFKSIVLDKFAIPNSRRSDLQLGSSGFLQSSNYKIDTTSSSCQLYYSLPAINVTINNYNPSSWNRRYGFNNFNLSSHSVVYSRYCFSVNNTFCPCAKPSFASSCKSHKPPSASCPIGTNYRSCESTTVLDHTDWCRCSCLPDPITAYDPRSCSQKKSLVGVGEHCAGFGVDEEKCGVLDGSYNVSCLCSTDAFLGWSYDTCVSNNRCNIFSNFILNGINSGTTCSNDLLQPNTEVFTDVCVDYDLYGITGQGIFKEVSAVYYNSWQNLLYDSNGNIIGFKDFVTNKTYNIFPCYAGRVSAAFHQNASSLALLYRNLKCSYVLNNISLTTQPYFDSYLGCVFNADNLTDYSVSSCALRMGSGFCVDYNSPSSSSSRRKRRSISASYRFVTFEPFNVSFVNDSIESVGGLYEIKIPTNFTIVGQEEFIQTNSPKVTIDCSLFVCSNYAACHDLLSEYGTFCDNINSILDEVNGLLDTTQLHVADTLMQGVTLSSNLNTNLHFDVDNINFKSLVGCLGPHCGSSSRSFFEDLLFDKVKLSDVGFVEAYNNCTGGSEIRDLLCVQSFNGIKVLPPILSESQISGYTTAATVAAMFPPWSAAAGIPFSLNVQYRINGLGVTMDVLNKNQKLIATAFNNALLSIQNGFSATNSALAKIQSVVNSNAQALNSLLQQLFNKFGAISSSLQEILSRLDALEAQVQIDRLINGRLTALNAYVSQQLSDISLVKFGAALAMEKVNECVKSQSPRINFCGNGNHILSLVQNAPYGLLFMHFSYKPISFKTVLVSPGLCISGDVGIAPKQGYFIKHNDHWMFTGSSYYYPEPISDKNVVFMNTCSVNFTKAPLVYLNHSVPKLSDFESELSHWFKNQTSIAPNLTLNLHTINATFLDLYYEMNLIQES
The description is as above.

Assay [4] concerns the target T1, SARS-COV-2 RBD (His-tagged, …). In words: ELISA, periplasmic extract 1/10, OD450 antigen/OD450 BSA. The source holds these as a separate data set.

Changes are numbered by the printed parent chain. Read-outs that look alike come from different tables or passages of the source.

B1: 3.83 (VHH)
VHH: QVQLQESGGGLVQPGDSLRLSCVLSGGVFTSYAMGWFRQAPGKEREFLAAITFNSDATYYADSVKGRFTISRDNAKNTAYLQMNSLKPNDTAVYSCAAGGNHYNPQYYHDYDKYDHWGQGTQVTVSS
On to B1, for which the binding result in assay [1] is “binds”.

B2: VHH R3_DC5 (VHH)
VHH: QVQLQESGGGLVQAGDSLRLSCAASGRIFSTYTMGWFRQAPGMEREFVAAIRWSGSTVYYADSVKGRFTISRDNAKNTVYLQMNSLKPEDTAVYYCAAARVSKANYGTLWYRATGLYDYWGQGTQVTVSS
For the molecule B2, the binding result is recorded as “no binding (tested: extract 1/10, concentration not given)” in assay [2]; “no binding (tested: extract 1/10, concentration not given)” in assay [3]; “no binding (tested: extract 1/10, concentration not given)” in assay [4].

B3: VHH R3_DC21 (VHH)
VHH: QVQLQESGGGLVQAGDSLRLSCAVSGRPFSTYTMGWFRQAPGKEREFVAAMRWSGGTIYYADSVRGRFTISRDNDKNTVNLEMNSLKPEDTAVYYCAAAYVSKANYGSLWYRASGLYDYWGQGTQVTVSS
Take B3: the binding result is listed as “no binding (tested: extract 1/10, concentration not given)” in assay [2]; “no binding (tested: extract 1/10, concentration not given)” in assay [3]; “no binding (tested: extract 1/10, concentration not given)” in assay [4].

B4: VHH R3_DC19 (VHH)
VHH: B3 VHH with A14P, R65K
On to B4, for which the binding result in assay [2] is “no binding (tested: extract 1/10, concentration not given)”; in assay [3], “no binding (tested: extract 1/10, concentration not given)”; in assay [4], “no binding (tested: extract 1/10, concentration not given)”.
